The target in test [1] is T1, purified EBV gp350/220 (recombinant EBV gp350 ectodomain) (Epstein-Barr virus, UniProt P03200).
T1 construct: purified EBV gp350 ectodomain protein (AA 4-863); purchased Immune Technology Corporation
The test is described as follows: Indirect ELISA on recombinant EBV gp350 ectodomain. The following applies: purified antibodies 10 μg/ml. In kind it is binding. Here is the method:
Briefly, immunoplates (Costar 3590; Corning Incorporated) were coated with 50 μl of 0.5 μg/ml recombinant EBV gp350 ectodomain (Immune Technology Corporation) diluted in 1× phosphate buffered saline (PBS, pH 7.4) and incubated overnight at 4° C. After washing three times with 1×PBS containing 0.05% (v/v) Tween 20 (washing buffer), plates were blocked with 100 μl washing buffer containing 2% (w/v) bovine serum albumin (BSA) (blocking buffer) then incubated for 1 h at room temperature and washed as above. 100 μl of hybridoma supernatant or 50 μl of 10 μg/ml purified mAbs was added to each well (in triplicate) and incubated for 2 h at room temperature. […] The plates were washed as described above, followed by incubation with 50 μl of goat anti-mouse IgG HRP-conjugated secondary antibody (1:2,000 diluted in 1×PBS) at room temperature for 1 h. The plates were washed again and 100 μl of chromogenic substrate 2,2′-azino-bis (3-ethylbenzothiazoline-6-sulphonic acid) (ABTS, Life Science Technologies) was added. The reaction was stopped using 100 μl of ABTS peroxidase stop solution containing 5% sodium dodecyl sulfate (SDS) in water. The absorbance was read at an optical density of 405 nm using an ELISA reader (Molecular Devices). All experiments were performed in triplicate and confirmed in three independent experiments.
ELISA binding of anti-gp350 and anti-gH/gL to soluble gp350 and gH/gL proteins was performed. Soluble EBV gp350 and gH/gL proteins were used as the target antigen at 0.5 μg/ml. 1× phosphate buffered saline (PBS) was used as negative (not shown) control. Bound antibodies were detected using HRP-conjugated anti-mouse or anti-human IgG (1:2,000).
In general terms: In an ELISA, binding on a coated surface is turned into a signal by an enzyme label.

For test [2], the target named is T2, gp350 protein on gp350 expressing CHO cells (Epstein-Barr virus, UniProt P03200).
T2 construct: stably co-transfected with full-length pCAGGS-gp350/220 and pCI-puro vector; expressed in transfected cells; host or cells: CHO cells
T2 sequence (P03200 whole entry): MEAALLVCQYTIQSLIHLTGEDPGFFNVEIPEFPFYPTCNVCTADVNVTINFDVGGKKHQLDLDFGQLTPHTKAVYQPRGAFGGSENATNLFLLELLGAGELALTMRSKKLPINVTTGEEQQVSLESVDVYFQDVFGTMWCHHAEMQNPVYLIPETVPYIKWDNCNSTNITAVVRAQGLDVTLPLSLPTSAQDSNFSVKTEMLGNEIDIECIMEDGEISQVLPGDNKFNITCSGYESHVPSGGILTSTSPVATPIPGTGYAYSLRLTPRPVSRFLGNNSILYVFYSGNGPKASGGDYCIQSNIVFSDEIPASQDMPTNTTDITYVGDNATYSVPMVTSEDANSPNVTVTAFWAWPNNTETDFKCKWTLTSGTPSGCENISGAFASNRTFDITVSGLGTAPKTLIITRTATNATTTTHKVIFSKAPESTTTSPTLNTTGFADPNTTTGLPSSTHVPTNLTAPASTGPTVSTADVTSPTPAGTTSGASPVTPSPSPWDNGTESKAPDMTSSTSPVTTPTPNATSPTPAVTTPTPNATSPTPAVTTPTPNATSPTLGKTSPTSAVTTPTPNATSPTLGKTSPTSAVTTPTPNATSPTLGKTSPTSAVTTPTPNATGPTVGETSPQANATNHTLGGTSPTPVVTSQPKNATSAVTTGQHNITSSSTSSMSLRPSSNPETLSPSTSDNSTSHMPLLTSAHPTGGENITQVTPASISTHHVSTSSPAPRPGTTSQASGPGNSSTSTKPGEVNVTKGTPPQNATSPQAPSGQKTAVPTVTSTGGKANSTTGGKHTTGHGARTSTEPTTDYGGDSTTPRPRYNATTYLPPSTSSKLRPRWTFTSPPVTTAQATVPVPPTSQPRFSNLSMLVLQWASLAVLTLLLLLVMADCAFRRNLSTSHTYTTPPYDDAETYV
The test is described as follows: Flow cytometry of CHO cells stably expressing EBV gp350. In kind it is binding. The following applies: concluded from flow cytometry and immunoblot. The method, then:
To assess the ability of purified anti-gp350 mAb to detect surface expression of EBV gp350 protein by flow cytometry, CHO cells that stably express EBV gp350 were harvested and stained with purified anti-gp350 (10 μg/ml), followed by AF488 goat anti-mouse IgG secondary antibody. Flow cytometric analysis was performed on a C-6 FC (BD Biosciences) and data was analyzed using FlowJo Cytometry Analysis software (FlowJo, LLC) as described (47). All the experiments were independently repeated three times.
These novel antibodies were analyzed by flow cytometric analysis for surface expression of gp350 protein on 10^6 CHO cells transfected with 1 μg of pCAGGS-gp350. gp350 expressing cells were resuspended in PBS, stained with anti-gp350 mAb, which detects the gp350 ED, followed by secondary Ab goat anti-mouse conjugated to AF488. Additionally, western blot analysis was conducted on untransfected and pCAGGS-gp350 transfected CHO lysate. Anti-gp350 mAb 72A1 was used as a positive control (1:100) and anti-gp350 hybridoma clone supernatants were used at 1:50, and anti-mouse secondary antibody was used at 1:2000.
Flow cytometric analysis of gp350 and gH/gL specificity was performed. CHO wild type cells and gp350 or gH/gL-expressing CHO cells were stained with primary antibodies, followed by secondary goat anti-mouse or anti-human conjugated to AF488. Unstained cells and cells stained with secondary goat anti-mouse or anti-human conjugated to AF488 alone, were used as negative controls.
In general terms: In flow cytometry, cells or beads pass a laser one at a time.

Test [3] has as its system EBV-eGFP infection of Raji cells. The test is described as follows: EBV neutralization assay in Raji cells. The following applies: for neutralization of EBV in Raji cells (in words): spin-column purified mAbs, 12.5, 25, 50 and 100 μg/ml; for blocking of EBV infection of Raji cells (in words): protein G and size-exclusion chromatography-purified mAbs, 12.5-100 μg/ml. In kind it is cell-based, Epstein-Barr virus. Here is the method:
EBV neutralization assay was performed in Raji cells as previously described (47). Briefly, purified individual anti-gp350 mAbs were incubated with purified AGS-EBV-eGFP (titer calculated to infect at least 8% of HEK293 cells seeded in 100 μl of serum-free DMEM) for 2 hours at 37° C. To represent EBV infection of B cells, the pre-incubated anti-gp350 mAbs/AGS-EBV-eGFP were used to infect 5×10^5 Raji cells seeded in a 96-well plate for 2 hours at 37° C. Neutralizing 72A1 and non-neutralizing 2L10 anti-gp350 mAbs served as positive and negative controls, respectively. Infected cells were washed three times with PBS to remove any unbound viruses and antibodies. Washed, infected cells were incubated in 96-well plates at 37° C. for 48 hours post-infection and the number of eGFP+ (infected) cells was determined using flow cytometry. All dilutions were performed in quintuplicate and the assays were repeated three times. Antibody EBV neutralization activity was calculated as: % neutralization=(EBValone−EBVmAb)/(EBValone)×100.
However, this antibody was recently reported to be a mixture of both functional and non-functional antibodies (50). […] The percentage of eGFP+ cells (percent infection) was determined using flow cytometry as described (47). The nAbs 72A1 and E1D1 were used as positive controls, whereas the anti-gp350 non-neutralizing mAb 2L10 and KSHV gH/gL mAb 54A1 were used as negative controls. Because HB4, HB13, HB15, HB16, HB19, HB21, and HB23 were confirmed to be polyclonal based on isotyping and/or sequence data, they were eliminated from further consideration in the neutralization assay. HB18 was not used in neutralization experiments because it was identical to HB8.
The purified eGFP-tagged-EBV was titered in Raji cells to determine percent EBV infection using a range of volumes (50-250 μl) (FIG. 5A). Then initial neutralization of EBV was conducted in Raji cells using purified mAbs at various concentrations (12.5, 25, 50, and 100 μg/ml).
EBV-eGFP+ cells were enumerated using flow cytometry.
A general note: SEC sorts molecules by how far they enter the pores of the column.

For test [4], the target named is T3, EBV gp350 stably expressed on CHO cells (Epstein-Barr virus, UniProt P03200).
T3 construct: stably co-transfected with full-length pCAGGS-gp350/220 and pCI-puro vector; expressed in transfected cells; host or cells: CHO cells
T3 sequence (P03200 whole entry): as above
Kind of test: Epitope mapping by competitive cell binding assay with biotinylated mAbs. The following applies: for % inhibition of biotinylated nAbs (biotinylated m72A1): biotinylated m72A1 1 μg/ml. Here is the method: To evaluate conformation epitope mapping of the selected mAbs, competitive binding assays were conducted using biotinylated mAbs. A one-step antibody biotinylation kit (MACS Miltenyi Biotec) was used to biotinylate the mAbs. Approximately 1×10^5 CHO cells that stably expressed EBV gp350 were incubated for 2 hours with serially diluted ([…]) unlabeled competitor mAbs and non-specific anti-KSHV gH/gL 54A1 mAb. After being washed with PBS, the cells were incubated for 2 hours in the presence of 1 μg/ml biotinylated mAbs. To determine maximum binding, cells in which the biotinylated mAb was added in the absence of unlabeled mAbs were included in the assay. Cells were washed with PBS, followed by incubation for 1 hour with anti-biotin AF488 at a dilution of 1:500. After the final wash in PBS, cells were resuspended in 1% paraformaldehyde and analyzed by flow cytometry as described above. Percentage of inhibition was calculated as: 100−[(% fluorescent cells with competitor mAb/% fluorescent cells without competitor mAb)×100]. The complete prevention of binding of a biotinylated mAb by its unlabeled counterpart was used as a validation of the assay, as previously described (84).
At least seven unique CD21 binding epitopes on EBV gp350 have been predicted (Table 3).

T1 sequence (P03200 4-863): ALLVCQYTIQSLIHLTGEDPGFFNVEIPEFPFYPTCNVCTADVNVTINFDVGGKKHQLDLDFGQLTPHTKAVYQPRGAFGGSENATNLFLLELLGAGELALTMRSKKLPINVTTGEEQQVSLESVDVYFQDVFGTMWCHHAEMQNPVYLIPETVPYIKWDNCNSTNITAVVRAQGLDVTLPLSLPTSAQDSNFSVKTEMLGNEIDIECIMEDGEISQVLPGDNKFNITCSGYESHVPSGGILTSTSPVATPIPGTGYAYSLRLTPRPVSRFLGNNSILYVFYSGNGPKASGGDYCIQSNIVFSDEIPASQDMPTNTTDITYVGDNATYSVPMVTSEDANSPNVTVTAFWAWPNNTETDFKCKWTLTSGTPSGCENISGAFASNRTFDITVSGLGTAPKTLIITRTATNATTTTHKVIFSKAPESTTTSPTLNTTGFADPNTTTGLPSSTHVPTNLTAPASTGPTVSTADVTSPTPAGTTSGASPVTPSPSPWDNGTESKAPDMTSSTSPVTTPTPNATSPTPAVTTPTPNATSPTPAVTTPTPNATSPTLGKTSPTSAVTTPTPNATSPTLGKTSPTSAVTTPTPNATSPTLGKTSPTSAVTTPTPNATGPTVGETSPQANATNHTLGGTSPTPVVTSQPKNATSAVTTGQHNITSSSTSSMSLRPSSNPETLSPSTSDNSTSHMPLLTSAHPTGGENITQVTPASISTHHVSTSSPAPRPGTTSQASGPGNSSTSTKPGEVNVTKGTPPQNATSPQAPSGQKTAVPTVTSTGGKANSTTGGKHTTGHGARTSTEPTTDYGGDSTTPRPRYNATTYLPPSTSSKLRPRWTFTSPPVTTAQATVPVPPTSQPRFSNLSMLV

B1: HB9: murine anti-EBV gp350 mAb, IgG2a κ; SEQ ID NO: 116 / 117 (antibody, V domains shown)
VH: GGLVKPGGSLKLSCAASGFTFSSYTMSWVRQTPEKRLEWVATISSGGSYIYYPDSVKGRFTISRDNAKNTLYLQMSSLKSEDTAIYYCTREDFYYGSSYGFFDVWGAGTTVTVSSAKTTAPSVYPLAPVCGDTTGSSVTLG
VL: LSLPVSLGDQASISCRSSQSIVHSNGNTYLEWYLQKAGQSPKLLIYKVSNRFSGVPDRFGGSGSGTDFTLKISRVEAEDLGVYYCFQGSHVPYTFGGGTKLEIKRADAAPTV
modifications: heavy chain mAb HB9; light chain mAb HB9
On to B1, for which, in test [1], the “ELISA binding to purified EBV gp350/220” value is recorded as “+”. For the same molecule, the “type of gp350 epitope recognized (linear / conformational)” value (“type … (linear / conformational)” for short) in test [2] is “recognized both linear and conformational epitopes”. The “neutralization of EBV in Raji cells (in words)” value (from here on “neutralization of EBV”) in test [3] is recorded as “failed to neutralize EBV infection”.

B2: HB22: murine anti-EBV gp350 mAb, IgG1 κ; SEQ ID NO: 130 / 131; non-nAb (antibody, V domains shown)
VH: PGLVAPSQSLSITCTVSGFSLTNYGIHWVRQPPGKGLEWLVVIWSDGSTIYNSALKSRLSISKDNSKSQVFLKMNSLQTDDTAMYYCARNYYGNSYPAWFAYWGQGTLVTVSAAKTTPPSVYPLAPGSAAQTNSMVTLG
VL: LSLPVSLGDQASISCRSSQSIVHSNGNTYLEWYLQKPGQSPKLLIYKVSNRFSGVPDRFSGSGSGTDFTLRISRVEAEDLGVYYCFQGSHVPWTFGGGTKLEIKRADAAPTV
modifications: heavy chain mAb HB22; light chain mAb HB22
notes: murine anti-EBV gp350 mAb, IgG1 κ; non-nAb
For the molecule B2, the “ELISA binding to purified EBV gp350/220” value in test [1] is “+”. For the same molecule, the “blocking of EBV infection of Raji cells (in words)” value in test [3] is given as “Neither HB17, HB22, nor 54A1 blocked EBV infection”. Also, in test [3], the “neutralization of EBV” value is listed as “dose-dependent neutralization”. Besides, the “% inhibition of biotinylated nAbs (biotinylated m72A1)” value in test [4] (unlabeled mAb 67.5 μg/ml) came out at 9%; in test [4] (unlabeled mAb 125 μg/ml) it was 16%; in test [4] (unlabeled mAb 250 μg/ml) it was 3%; in test [4] (unlabeled mAb 500 μg/ml), 10%.

B3: HB2: murine anti-EBV gp350 mAb, IgG2a κ; SEQ ID NO: 104 / 105 (antibody, V domains shown)
VH: PELKKPGETVKISCKASGYTFTAYSMHWVKLTPGKGLKWMGWINTKTGEPTYADDFKGRFAFSLETSASTAYLQINNLKNEDTATYFCAPYGYALDYWGQGTSVTVSSAKTTPPSVYPLAPGSAAQTNSMVTLG
VL: AILSASPGEKVTMTCRATSSVNYMHWYQQKPGSSPKPWIYATSNLASGVPARFSGSGSGTSYSLTISRVEAEDAATYYCQQWSSNPPTFGAGTKLELKRADAAPTV
modifications: heavy chain mAb HB2; light chain mAb HB2
Consider B3, for which, in test [1], the “ELISA binding to purified EBV gp350/220” value was “+”. For the same molecule, the “type … (linear / conformational)” value in test [2] is “only recognized conformational epitopes”. Moreover, in test [3], the “neutralization of EBV” value is “failed to neutralize EBV infection”.

B4: HB17: murine anti-EBV gp350 mAb, IgG2b κ; SEQ ID NO: 126 / 127; non-nAb (antibody, V domains shown)
VH: AELVIPGASVKVSCKASGYTFTSYWIHWVKQWPGQGLEWIGEINPNNGHTNYNEKFKSKATLTVDKSSSTAYMQLSSLTSEDSAVYYCARNLFYYSRPDYWGQGTSVTVSSAKTTPPSVYPLAPGCGDTTGSSVTLG
VL: SSLSASLGDRVTISCRASQDIGNYLNWYQQKPDGTIKLLIYYTSRLHSGVPSRFSGSGSGTDYSLTISNLEEEDIATYFCQQGNTLPPTFGGGTKLEIKRADAAPTV
modifications: heavy chain mAb HB17; light chain mAb HB17
notes: murine anti-EBV gp350 mAb, IgG2b κ; non-nAb
For the molecule B4, the “ELISA binding to purified EBV gp350/220” value in test [1] is “+”. In test [2], the “type … (linear / conformational)” value was “recognized both linear and conformational epitopes”. For the same molecule, in test [3], the “blocking of EBV infection of Raji cells (in words)” value was “Neither HB17, HB22, nor 54A1 blocked EBV infection” and the “neutralization of EBV” value is “failed to neutralize EBV infection”. The “competitive binding versus m72A1 and h72A1 (in words)” value in test [4] (biotinylated antibodies) is listed as “little to no competitive binding”.

B5: HB3: murine anti-EBV gp350 mAb, IgG2a κ; SEQ ID NO: 106 / 107 (antibody, V domains shown)
VH: AELVRPGASVKLSCKASGYTFASYWMQWVKQWPGQGLEWIGEINPNNGHTNYNERFKNKASLTVDKSSSTAYMQLSSLTSEDSAVYYCARNLYYYGRPDYWGQGTSVTVSSAKTTAPSVYPLAPVCGDTTGSSVTLG
VL: SSLSASLGDRVTISCRASQDIGNYLNWYQQKPDGTIKLLIYYTSRLHSGVPSRFSGSGSGTDYSLTISNLEEEDIATYFCQQGNTLPPTFGGGTKLEIKRADAAPTV
modifications: heavy chain mAb HB3; light chain mAb HB3
With B5, the “ELISA binding to purified EBV gp350/220” value in test [1] is reported as “+”. Moreover, the “type … (linear / conformational)” value in test [2] was “only recognized conformational epitopes”. The “neutralization of EBV” value in test [3] is “failed to neutralize EBV infection”.

Source of the values: patent US12012446B2, “Epstein-Barr virus antibodies and uses thereof” (priority 2017, dated 2024).
